Assay [1] deals with T1, human insulin receptor isoform A with C-terminal C9 tag (human, UniProt P06213 28-1382).
T1 construct: membranes of stably transfected HEK293 cells; also called hIR-A; human IR-A
Briefly: 125I-insulin competition SPA, hIR-A membranes, 0.1% BSA. On the procedure:
(§1) The assays are performed with a SPA method using polyvinyltoluene (PVT) wheat germ agglutinin-coupled SPA beads (Perkin Elmer). Assay buffer contains 50 mM Tris-HCl, pH 7.5, 150 mM NaCl and either A) 0.1% w/v fatty-acid free BSA; B) 0.1% w/v fatty-acid free human serum albumin (HSA); C) 0.1% w/v rat serum albumin (RSA); or D) 0.001% Nonidet P-40 Substitute (NP-40, Roche Diagnostics). Ten-point concentration response curves using three-fold serial dilutions of test samples or controls are prepared in Assay Buffer using a Freedom/Evo robot (Tecan).
(§2) Percent specific inhibition (y-axis) is plotted versus the log concentration of compound (x-axis). […] Reported Ki values are shown as the geometric mean with the standard error (Delta Method Standard Error) and the number of independent replicate determinations used to calculate the geometric mean indicated by n.

Assay [2] has as its target T1, human insulin receptor isoform A with …. Briefly: 125I-insulin competition SPA, hIR-A membranes, 0.1% HSA. How it is done:
as §1, §2

Assay [3] addresses T2, human insulin receptor isoform B with C-terminal C9 tag (human, UniProt P06213 28-1382).
T2 construct: membranes of stably transfected HEK293 cells; also called hIR-B; human IR-B
Put plainly: 125I-insulin competition SPA, hIR-B membranes, 0.1% BSA. How it is done:
as §1, §2

In assay [4] the target is T2, human insulin receptor isoform B with …. Briefly: 125I-insulin competition SPA, hIR-B membranes, 0.1% HSA. On the procedure:
as §1, §2

In assay [5] the target is T1, human insulin receptor isoform A with …. Put plainly: 125I-insulin competition SPA, hIR-A membranes, 0.001% NP-40. How it is done:
as §1, §2

For assay [6], the target named is T2, human insulin receptor isoform B with …. Put plainly: 125I-insulin competition SPA, hIR-B membranes, 0.001% NP-40. How it is done:
as §1, §2

This note sets out measurements from patent US20220378931A1 (Eli Lilly, published 2022).

B1: INS Analog 2 (other)
chain: FVDQHLCGSHLVEALYLVCGERGFFYTPKTGGGGGGGIVEQCCTSICSLYQLENYCGPGPAPGPAPGPAPGPAPGPAPGPAPGPAPGPAEVQLLESGGGLVQPGGSLRLSCAASGRTVSSTAVAWFRQAPGKEREFVAGIGGSVDITYYADSVKGRFTISRDNSKNTLYLQMNSLRPEDTAVYYCAVRPGRPLITSRDANLYDYWGQGTLVTVSS
notes: single-chain insulin B-L2-A-L1-VHH fusion; also called Ex. 2
As to B1, the Ki in assay [1] worked out at 31.4 nM; in assay [2] it was 31.9 nM; in assay [3], 56 nM; in assay [4] it was 29.7 nM; in assay [5], 45.1 nM; in assay [6], 39.2 nM.

B2: INS Analog 17 (other)
chain: FVSQHLCGSHLVEALRLVCGERGFFYTPKTGGGGGGGIVEQCCHSICSLYQLENYCGPGPAPGPAPGPAPGPAPGPAPGPAPGPAPGPAEVQLLESGGGLVQPGGSLRLSCAASGRYIDETAVAWFRQAPGKEREFVAGIGGGVDITYYADSVKGRFTISRDNSKNTLYLQMNSLRPEDTAVYYCAARPGRPLITSKVADLYPYWGQGTLVTVSSPP
notes: single-chain insulin B-L2-A-L1-VHH fusion; also called Ex. 17
For the molecule B2, the Ki is 81.8 nM in assay [1]; 31.3 nM in assay [2]; 110 nM in assay [3]; 102 nM in assay [4]; 31.3 nM in assay [5]; 44.3 nM in assay [6].

B3: INS Analog 18 (other)
chain: FVSQHLCGSHLVEALRLVCGERGFHYTPKTGGGGGGGIVEQCCHSICSLYQLENYCGPGPAPGPAPGPAPGPAPGPAPGPAPGPAPGPAEVQLLESGGGLVQPGGSLRLSCAASGRYIDETAVAWFRQAPGKEREFVAGIGGGVDITYYADSVKGRFTISRDNSKNTLYLQMNSLRPEDTAVYYCAARPGRPLITSKVADLYPYWGQGTLVTVSSPP
notes: single-chain insulin B-L2-A-L1-VHH fusion; L1 is (PGPA)8; also called Ex. 18
Regarding B3, the Ki in assay [1] stood at 204 nM; in assay [2], 518 nM; in assay [3], 299 nM; in assay [4], 239 nM; in assay [5], 89.5 nM; in assay [6], 134 nM.

B4: INS Analog 13 (other)
chain: FVSQHLCGSHLVEALHLVCGERGFHYTPKTGGGGGGGIVEQCCHSICSLEQLENYCGPGPAPGPAPGPAPGPAPGPAPGPAPGPAPGPAEVQLLESGGGLVQPGGSLRLSCAASGRYIDETAVAWFRQAPGKEREFVAGIGGGVDITYYADSVKGRFTISRDNSKNTLYLQMNSLRPEDTAVYYCAARPGRPLITSKVADLYPYWGQGTLVTVSSPP
notes: single-chain insulin B-L2-A-L1-VHH fusion; also called Ex. 13
Turning to B4, the Ki in assay [1] turned out to be 60.3 nM; in assay [2], 34.6 nM; in assay [3], 131 nM; in assay [4], 89 nM; in assay [5], 23.1 nM; in assay [6] it was 39.2 nM.

B5: INS Analog 11 (other)
chain: FVSQHLCGSHLVEALHLVCGERGFFYTPKTGGGGGGGIVEQCCHSICSLEQLENYCGPGPAPGPAPGPAPGPAPGPAPGPAPGPAPGPAEVQLLESGGGLVQPGGSLRLSCAASGRYIDETAVAWFRQAPGKEREFVAGIGGGVDITYYADSVKGRFTISRDNSKNTLYLQMNSLRPEDTAVYYCAARPGRPLITSKVADLYPYWGQGTLVTVSSPP
notes: single-chain insulin B-L2-A-L1-VHH fusion; also called Ex. 11
Turning to B5, the inhibition constant Ki in assay [1] is 36 nM; in assay [2], 31.8 nM; in assay [3] it was 164 nM; in assay [4], 95.4 nM; in assay [5], 20.5 nM; in assay [6], 81.1 nM.

B6: INS Analog 14 (other)
chain: FVSQHLCGSHLVEALRLVCGERGFFYTPKTGGGGGGGIVEQCCTSICSLYQLENYCGPGPAPGPAPGPAPGPAPGPAPGPAPGPAPGPAEVQLLESGGGLVQPGGSLRLSCAASGRYIDETAVAWFRQAPGKEREFVAGIGGGVDITYYADSVKGRFTISRDNSKNTLYLQMNSLRPEDTAVYYCAARPGRPLITSKVADLYPYWGQGTLVTVSSPP
notes: single-chain insulin B-L2-A-L1-VHH fusion; also called Ex. 14
As to B6, the Ki in assay [1] came to 282 nM; in assay [2], 124 nM; in assay [3], 378 nM; in assay [4] it was 447 nM; in assay [5], 163 nM; in assay [6] it was 234 nM.

B7: INS Analog 7 (other)
chain: FVSQHLCGSHLVEALYLVCGERGFFYTPKTGGGGGGGIVEQCCTSICSLYQLENYCGPGPAPGPAPGPAPGPAPGPAPGPAPGPAPGPAEVQLLESGGGLVQPGGSLRLSCAASGRYIDETAVAWFRQAPGKEREFVAGIGGGVDITYYADSVKGRFTISRDNSKNTLYLQMNSLRPEDTAVYYCAARPGRPLITSKVADLYPYWGQGTLVTVSSPP
notes: single-chain insulin B-L2-A-L1-VHH fusion; also called Ex. 7
Take B7: the Ki turned out to be 36.1 nM in assay [1]; 36.3 nM in assay [2]; 120 nM in assay [3]; 47.1 nM in assay [4]; 14.3 nM in assay [5]; 45.4 nM in assay [6].

B8: INS Analog 12 (other)
chain: FVSQHLCGSHLVEALHLVCGERGFHYTPKTGGGGGGGIVEQCCHSICSLYQLENYCGPGPAPGPAPGPAPGPAPGPAPGPAPGPAPGPAEVQLLESGGGLVQPGGSLRLSCAASGRYIDETAVAWFRQAPGKEREFVAGIGGGVDITYYADSVKGRFTISRDNSKNTLYLQMNSLRPEDTAVYYCAARPGRPLITSKVADLYPYWGQGTLVTVSSPP
notes: single-chain insulin B-L2-A-L1-VHH fusion; also called Ex. 12
B8: the inhibition constant (Ki) was 37.9 nM in assay [1]; 42.3 nM in assay [2]; 113 nM in assay [3]; 62.1 nM in assay [4]; 25 nM in assay [5]; 42.8 nM in assay [6].

By Ki is commonly meant a dissociation constant, usually derived from enzyme kinetics or from competition with a known ligand.
